Data published in PMC2185538, “Purification of the full-length Xenopus interphotoreceptor retinoid binding protein and growth of diffraction-quality crystals” (Molecular Vision, 2007).

Biological target: the molecule itself
Assay: SEC; Sephacryl S-300HR 2.6 x 100 cm, 25 mM Tris-HCl pH 7.5 at 4 °C, 50 mM NaCl, 1 mM DTT; dimer between elution volumes 212 and 250 ml

B1: recombinant full-length four-module Xenopus interphotoreceptor retinoid-binding protein (natural protein)
chain: not shown
notes: begins FQPSL; also called xIRBP; Xenopus IRBP; source: E. coli Top10, thioredoxin fusion cleaved with enterokinase, purified (HisTrap twice, Sephacryl S-300HR); not shown: thioredoxin with His-patch, N-terminal, cleaved
B1 was tested, and the “stoichiometry N” value was 2.
